Measured values as given in patent publication US20140045930A1, “ASSAY FOR ARGINYL HYDROXYLASE ACTIVITY” (priority 2011, published 2014).

Biological target: His-tagged L16 protein (recombinant, produced in YcfD knock out strain JW1114) (E. coli) (UniProt A7ZSK2)
Assay: cell-based or functional assay

In the case of “YcfD ectopically expressed in the deletion strain JW1114 (co-expressed with L16 from pETDuet-1) (from UniProt P27431 1-373) (enzyme)”, the hydroxylation of R-81 in L16 in vivo (MS); unmodified peptide detected (% unmodified peptide) was < 1.
